Measurements as given in article PMC4689616 (Nature cell biology, 2015).

B1: FAM126A(2-308) (domain or fragment)
chain: FTSEKGVVEEWLSEFKTLPETSLPNYATNLKDKSSLVSSLYKVIQEPQSELLEPVCHQLFEFYRSGEEQLLQFTLQFLPELIWCYLAVSASRNVHSSGCIEALLLGVYNLEIVDKQGHTKVLSFTIPSLSKPSVYHEPSSIGSMALTESALSQHGLSKVVYSGPHPQREMLTAQNRFEVLTFLLLCYNAALTYMPSVSLQSLCQICSRICVCGYPRQHVRKYKGISSRIPVSSGFMVQMLTGIYFAFYNGEWDLAQKALDDIIYRAQLELYPEPLLVANAIKASLPHGPMKSNKEGTRCIQVEITPT
B2: GST-FAM126A-N/TTC7B dimer (complex)
chain 1: B1 chain
chain 2: RLETEIERCRSECQWERIPELVKQLSAKLIANDDMAELLLGESKLEQYLKEHPLRQGASPRGPKPQLTEVRKHLTAALDRGNLKSEFLQESNLIMAKLNYVEGDYKEALNIYARVGLDDLPLTAVPPYRLRVIAEAYATKGLCLEKLPISSSTSNLHVDREQDVITCYEKAGDIALLYLQEIERVILSNIQNRSPKPGPAPHDQELGFFLETGLQRAHVLYFKNGNLTRGVGRFRELLRAVETRTTQNLRMTIARQLAEILLRGMCEQSYWNPLEDPPCQSPLDDPLRKGANTKTYTLTRRARVYSGENIFCPQENTEEALLLLLISESMANRDAVLSRIPEHKSDRLISLQSASVVYDLLTIALGRRGQYEMLSECLERAMKFAFEEFHLWYQFALSLMAAGKSARAVKVLKECIRLKPDDATIPLLAAKLCMGSLHWLEEAEKFAKTVVDVGEKTSEFKAKGYLALGLTYSLQATDASLRGMQEVLQRKALLAFQRAHSLSPTDHQAAFYLALQLAISRQIPEALGYVRQALQLQGDDANSLHLLALLLSAQKHYHDALNIIDMALSEYPENFILLFSKVKLQSLCRGPDEALLTCKHMLQIWKSCYNLTNPSDSGRGSSLLDRTIADRRQLNTITLPDFSDPETGSVHATSVAASRVEQALSEVASSLQSSAPKQGPLHPWMTLAQIWLHAAEVYIGIGKPAEATACTQEAANLFPMSHNVLYMRGQIAELRGSMDEARRWYEEALAISPTHVKSMQRLALILHQLGRYSLAEKILRDAVQVNSTAHEVWNGLGEVLQAQGNDAAATECFLTALELEASSPAVPFTIIPRVL

Legend:
TTC7B(9-843) = target: T1, TTC7B(9-843) (UniProt Q86TV6 9-843); assay: SEC
T1 sequence: B2 chain 2

[1] = target: 3xFLAG-PI4KIIIα (wild-type) (UniProt P42356-1 1-2102); assay: pull-down

| Binder | binding result (TTC7B(9-843)) | binding result [1] |
| --- | --- | --- |
| B1 | binds | – |
| B2 | – | binds |
